Measured values taken from patent US20090123452A1 (TORREY PINES INSTITUTE FOR MOLECULAR STUDIES AND CATALYST …, published 2009).
Residue numbers refer to the chain shown, from its start. In names and notes the source's numbering stands. Read-outs that look alike come from different tables or passages of the source.

What was measured:
[1] = target: u-PA/IIIb (phage) (human, UniProt P00749 179-431); experiment: phage display selection: stable complex with His-tagged PAI-1/69 bait captured on Cu-sepharose; increased sensitivity against PAI-1/69
Description: (§1) In brief, 5 μl (˜2×10¹² to ˜1×10¹³) u-PA phage, containing an equal representation of u-PA phage from all three u-PA phage libraries (0.2, 0.5 and 0.9% mutagenesis frequency), was mixed with 5 μl bait substrate (from 0.1 to 1.0 μM PAI-1/RRAR or PAI-1/69) and 10 μl 10× indirect buffer pH 7.4 (0.5 M Tris, 1.0 M NaCl, 10 mM EDTA, 0.1% Tween 80) in a total volume of 100 μl (i.e. reaction contained 80 μl H₂O).
(§2) The u-PA phage-PAI-1 inhibitor complexes were captured using CuSO₄ activated sepharose. Pre-activation of the chelating sepharose (200 μl; Pharmacia) was accomplished by treatment with CuSO₄ (100 mM). The CuSO₄ activated sepharose was blocked with 0.5% BSA in PBS buffer for 1 hour at room temperature. 100 μl of BSA blocked sepharose beads was added to 100 μl of the above panning mixture reaction in the presence of 800 μl of binding buffer (0.5 M NaCl, 20 mM Tris, 20 mM immidozole, pH7.4) to capture the His-tagged PAI-1 inhibitor-u-PA phage complexes. The incubation was continued for another 1 hour at room temperature. Next, the panning mixture was centrifuged for 1 min at 2000 rpm and the sepharose beads containing bound u-PA phage-PAI-1 inhibitor complexes were washed with 1 ml of binding buffer to remove unbound phages. The washing step was repeated 5-10 times and the beads containing bound complexes were transferred to new tubes after each wash to avoid any potential “carry over” of non-specific phages.

[2] = target: u-PA/Ib (phage) (human, UniProt P00749 179-431); experiment: as above
Description: as §1, §2

[3] = target: u-PA/IIId (phage) (human, UniProt P00749 179-431); experiment: as above
Description: as §1, §2

[4] = target: u-PA/IVb (phage) (human, UniProt P00749 179-431); experiment: as above
Description: as §1, §2

[5] = target: u-PA/IIIc (phage) (human, UniProt P00749 179-431); experiment: as above
Description: as §1, §2

[6] = target: u-PA/Ia (phage) (human, UniProt P00749 179-431); experiment: as above
Description: as §1, §2

[7] = target: u-PA/Id (phage) (human, UniProt P00749 179-431); experiment: as above
Description: as §1, §2

[8] = target: u-PA/IIb (phage) (human, UniProt P00749 179-431); experiment: as above
Description: as §1, §2

[9] = target: u-PA/IIa (phage) (human, UniProt P00749 179-431); experiment: as above
Description: as §1, §2

[10] = target: u-PA/Ic (phage) (human, UniProt P00749 179-431); experiment: as above
Description: as §1, §2

[11] = target: u-PA/IVa (phage) (human, UniProt P00749 179-431); experiment: as above
Description: as §1, §2

[12] = target: u-PA/IIc (phage) (human, UniProt P00749 179-431); experiment: as above
Description: as §1, §2

[13] = target: u-PA/IIIa (phage) (human, UniProt P00749 179-431); experiment: as above
Description: as §1, §2

[14] = target: T1, u-PA/IIb (purified two-chain enzyme) (human, UniProt P00749 21-431); experiment: inhibition kinetics, 2nd order rate constant
T1 construct: F30V/K82E (chymotrypsin numbering); Full-length u-PA from COS-1 cells, made two-chain with plasmin-sepharose; also called u-PA/IIb (30, 82)
Description: (§3) The indirect chromogenic assay as described in Part D above was used to determine the residual enzyme activity remaining as a function of time.
(§4) The rate constants for inhibition of wild-type or mutant u-PA by PAI-1 were under pseudo-first order conditions for an excess of PAI-1 over u-PA as described previously (see e.g., Holmes et al. (1987) Biochemistry, 26: 5133-5140; Beatty et al. (1980) J. Biol. Chem., 255:3931-3934; Madison et al. (1990) PNAS, 87: 3530-3533; Madison et al. (1993) Methods Enzymol., 223:249-271). […] Following incubation, the mixtures were diluted and the residual enzymatic activity was determined in a standard chromogenic assay as set forth in D above. Data were analyzed by plotting In (residual activity/initial activity) versus time and determining the slope of the resulting straight line. […] rate constants were then derived by dividing the slope by the concentration of the inhibitor in the reaction.
(§5) Following preincubation, the mixtures were quenched with an excess of neutralizing anti-PAI antibodies and residual enzymatic activity was measured in the indirect chromogenic assay. The indirect, chromogenic assays were compared with control reactions containing no PAI-1 or to which PAI-1 was added after preincubation and addition of anti-PAI-1 antibody, plasminogen and Spectrozyme PL to the reaction mixture.

[15] = target: T2, u-PA/IIIa (purified two-chain enzyme) (human, UniProt P00749 21-431); experiment: inhibition kinetics, 2nd order rate constant
T2 construct: F30V/K82E/V159A (chymotrypsin numbering); Full-length u-PA from COS-1 cells, made two-chain with plasmin-sepharose; also called u-PA/IIIa (30, 82, 159)
Description: as §3, §4, §5

[16] = target: T3, u-PA/IVa (purified two-chain enzyme) (human, UniProt P00749 21-431); experiment: inhibition kinetics, 2nd order rate constant
T3 construct: F30V/K82E/V159A/E80G/I89V/K187E (chymotrypsin numbering); Full-length u-PA from COS-1 cells, made two-chain with plasmin-sepharose; also called u-PA/IVa (30, 80, 82, 89, 159, 187)
Description: as §3, §4, §5

[17] = target: T4, u-PA/IIIb (purified two-chain enzyme) (human, UniProt P00749 21-431); experiment: inhibition kinetics, 2nd order rate constant
T4 construct: F30V/K82E/T39A/V159A (chymotrypsin numbering); Full-length u-PA from COS-1 cells, made two-chain with plasmin-sepharose; also called u-PA/IIIb (30, 39, 82, 159)
Description: as §3, §4, §5

[18] = target: T5, u-PA/Ic (purified two-chain enzyme) (human, UniProt P00749 21-431); experiment: inhibition kinetics, 2nd order rate constant
T5 construct: F30V (chymotrypsin numbering); Full-length u-PA from COS-1 cells, made two-chain with plasmin-sepharose; also called u-PA/Ic (30)
Description: as §3, §4, §5

[19] = target: T6, u-PA/IVb (purified two-chain enzyme) (human, UniProt P00749 21-431); experiment: inhibition kinetics, 2nd order rate constant
T6 construct: F30V/K82E/V159A/E80G/E84K/I89V/K187E (chymotrypsin numbering); Full-length u-PA from COS-1 cells, made two-chain with plasmin-sepharose; also called u-PA/IVb (30, 80, 82, 84, 89, 159, 187)
Description: as §3, §4, §5

[20] = target: T7, mutant antithrombin III AT3/SLGR-KI (human, UniProt P01008 33-464); experiment: phage display selection: complex with His-tagged AT3-SLGRKI bait captured by anti-His antibody on plate
T7 construct: RCL residues IAGRSL are replaced by SLGRKI; also called AT3 (AT3/SLGR-KI)
T7 chain: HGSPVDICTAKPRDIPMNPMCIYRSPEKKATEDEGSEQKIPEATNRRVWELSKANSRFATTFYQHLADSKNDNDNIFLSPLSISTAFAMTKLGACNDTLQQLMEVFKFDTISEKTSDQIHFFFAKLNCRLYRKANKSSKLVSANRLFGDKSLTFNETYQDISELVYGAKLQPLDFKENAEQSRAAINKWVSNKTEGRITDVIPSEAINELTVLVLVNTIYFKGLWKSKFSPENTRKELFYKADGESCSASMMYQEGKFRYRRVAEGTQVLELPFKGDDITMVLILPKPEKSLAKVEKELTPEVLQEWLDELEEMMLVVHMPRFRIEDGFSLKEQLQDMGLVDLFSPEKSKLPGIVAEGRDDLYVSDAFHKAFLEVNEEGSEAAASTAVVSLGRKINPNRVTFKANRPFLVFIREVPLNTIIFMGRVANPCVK

[21] = target: T7, mutant antithrombin III AT3/SLGR-KI; experiment: as above

Measured: binding result

B1: mutant PAI-1/69 inhibitor (other)
chain: VHHPPSYVAHLASDFGVRVFQQVAQASKDRNVVFSPYGVASVLAMLQLTTGGETQQQIQAAMGFKIDDKGMAPALRHLYKELMGPWNKDEISTTDAIFVQRDLKLVQGFMPHFFRLFRSTVKQVDFSEVERARFIINDWVKTHTKGMISNLLGKGAVDQLTRLVLVNALYFNGQWKTPFPDSSTHRRLFHKSDGSTVSVPMMAQTNKFNYTEFTTPDGHYYDILELPYHGDTLSMFIAAPYEKEVPLSALTNILSAQLISHWKGNMTRLPRLLVLPKFSLETEVDLRKPLENLGMTDMFRQFQADFTSLSDQEPLHVAQALQKVKIEVNESGTVASSSTAVIPFGRSAPEEIIMDRPFLFVVRHNPTGTVLFMGQVMEP
notes: not shown: N-terminal poly histidine residues from the pPAIST7HS vector
not listed: [20] | [21]
binds: all other assays above

B2: Mutant MT-SP1 clone CPC-0027484 (phage) (enzyme)
chain: VVGGTDADEGEWPWQVSLHALGQGHICGASLISPNWLVSAAHCYIDDRGFRYSDPTQWTAFLGLHDQSQRSAPGVQERRLKRIISHPFFKDFTFDYDIALLELEKPAEYSSMVRPISLPDASHVFPAGKAIWVTGWGHTQYGGTGALILQKGEIRVINQTTCENLLPQQITPRMMCVGFLSGGVDSCQGDSGGPLSSVEADGRIFQAGVVSWGDGCAQRNKPGVYTRLPLFRDWIKENTGVSGSSGGGSEGGGSEGGGSEGGGSGGGSGSGDFDYEKMANANKGAMTENADENALQSDAKGKLDSVATDYGAAIDGFIGDVSGLANGNGATGDFAGSNSQMAQVGDGDNSPLMNNFRQYLPSLPQSVECRPFVFSAGKPYEFSIDCDKINLFRGVFAFLLYVATFMYVFSTFANILRNKES
notes: N95K/C122S
binds: [20]

B3: Mutant MT-SP1 clone CPC-0025387 (phage) (enzyme)
chain: B2 chain with I26F, K90N
notes: I41F/C122S
binds: [21]

B4: Mutant MT-SP1 clone CPC-0028017 (phage) (enzyme)
chain: B2 chain with K90N, D214V
notes: C122S/D217V
binds: [21]

B5: Mutant MT-SP1 clone CPC-0028333 (phage) (enzyme)
chain: B2 chain with T59K, F88L, K90N, F92Y, D214V
notes: T65K/F93L/F97Y/C122S/D217V
binds: [21]

B6: Mutant MT-SP1 clone CPC-0028341 (phage) (enzyme)
chain: B2 chain with I26T, K90N, P167S, Q206L
notes: I41T/C122S/P173S/Q209L
binds: [20]
